{"source": "paper PMC11182334", "about": "(Cell, 2024)", "molecules": {"B1": {"name": "recombinant His-tagged VP3 of bluetongue virus, wild type (natural protein)", "chain": "MAAQNEQRPERIKTTPYLEGDVLSSDSGPLLSVFALQEIMQKVRQVQADYMTATREVDFTVPDVQQILDDIKALAAAQVYKIVKVPSTSFRHIVTQSRDRVLRVDTYYEEMSQVGDVITEDEPEKFYSTIIKKVRFIRGKGSFILHDIPARDHRGMEVAEPEVLGVEFKNVLPVLTAEHRAMIQNALDGSIIENGNVATRDVDVFIGACSEPFYRIYNRFQGYIEAVQLQELRNSIGWLERLGQRKRITYSQEVLTDFRRQDMIWVLALQLPVNPQVVWDVPRSSIANLIMNIATCLPTGEYIAPNPRISSITLTQRITTTGPFAILTGSTPTAQQLNDVRKIYLALMFPGQIILDLKIDPGERMDPAVRMVAGVVGHLLFTAGGRFTNLTQNMARQLDIALNDYLLYMYNTRVQVNYGPTGEPLDFQIGRNQYDCNVFRADFATGTGYNGWATIDVEYRDPAPYVHAQRYIRYCGIDSRELINPTTYGIGMTYHCYNEMLRMLVAAGKDSEAAYFRSMLPFHMVRFARINQIINEDLHSVFSLPDDMFNALLPDLIAGAHQNADPVVLDVSWISLWFAFNRSFEPTHRNEMLEIAPLIESVYASELSVMKVDMRHLSLMQRRFPDVLIQARPSHFWKAVLNDSPEAVKAVMNLSHSHNFINIRDMMRWVLLPSLQPSLKLVLEEEAWAAANDFEDLMLTDQVYMHRDMLPEPRLDDIERFRQEGFYYTNMLEAPPEIDRVVQYTYEIARLQANMGQFRAALRRIMDDDDWIGFGGVLRTVRVKFFDARPPDDILQGLPFSYDTNEKGGLSYATIKYATETTIFYLIYNVEFSNTPDSLVLINPTYTMTKVFINKRIVERVRVGQILAVLNRRFVAYKGKMRIMDITQSLKMGTKLAAPTV"}}, "key": {"[1]": {"target": "recombinant untagged VP6 of bluetongue virus, wild type (bluetongue virus (serotype of the cDNA not stated))", "test": "cryo-EM structure"}, "[2]": {"target": "T1, VP3 (WT, co-expressed with VP6);VP6 (WT) (Bluetongue virus;Bluetongue virus, UniProt D8V886;D8V892 1-901;1-329, |)", "T1 sequence 1": "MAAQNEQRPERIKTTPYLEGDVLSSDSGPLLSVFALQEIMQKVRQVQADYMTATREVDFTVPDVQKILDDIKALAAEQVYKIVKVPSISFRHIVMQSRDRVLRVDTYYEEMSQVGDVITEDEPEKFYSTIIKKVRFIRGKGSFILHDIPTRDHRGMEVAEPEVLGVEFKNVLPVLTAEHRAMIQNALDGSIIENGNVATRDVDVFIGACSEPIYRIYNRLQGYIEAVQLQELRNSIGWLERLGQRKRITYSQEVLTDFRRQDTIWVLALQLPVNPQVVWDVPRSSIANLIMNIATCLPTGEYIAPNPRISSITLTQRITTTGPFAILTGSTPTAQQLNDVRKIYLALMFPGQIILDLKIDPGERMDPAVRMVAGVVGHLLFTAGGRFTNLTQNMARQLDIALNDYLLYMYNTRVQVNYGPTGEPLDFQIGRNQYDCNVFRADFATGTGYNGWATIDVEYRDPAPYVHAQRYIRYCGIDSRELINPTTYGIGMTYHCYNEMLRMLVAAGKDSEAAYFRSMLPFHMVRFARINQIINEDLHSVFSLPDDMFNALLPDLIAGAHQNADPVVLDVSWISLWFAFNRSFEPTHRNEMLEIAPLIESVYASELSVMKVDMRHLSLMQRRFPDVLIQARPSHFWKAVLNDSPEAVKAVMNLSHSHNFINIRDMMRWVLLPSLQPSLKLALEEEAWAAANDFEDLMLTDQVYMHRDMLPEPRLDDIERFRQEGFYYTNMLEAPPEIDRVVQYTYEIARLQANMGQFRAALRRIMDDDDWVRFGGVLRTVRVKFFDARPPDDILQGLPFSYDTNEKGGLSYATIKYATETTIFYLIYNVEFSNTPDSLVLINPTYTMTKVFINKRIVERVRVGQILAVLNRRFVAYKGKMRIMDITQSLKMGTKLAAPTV", "T1 sequence 2": "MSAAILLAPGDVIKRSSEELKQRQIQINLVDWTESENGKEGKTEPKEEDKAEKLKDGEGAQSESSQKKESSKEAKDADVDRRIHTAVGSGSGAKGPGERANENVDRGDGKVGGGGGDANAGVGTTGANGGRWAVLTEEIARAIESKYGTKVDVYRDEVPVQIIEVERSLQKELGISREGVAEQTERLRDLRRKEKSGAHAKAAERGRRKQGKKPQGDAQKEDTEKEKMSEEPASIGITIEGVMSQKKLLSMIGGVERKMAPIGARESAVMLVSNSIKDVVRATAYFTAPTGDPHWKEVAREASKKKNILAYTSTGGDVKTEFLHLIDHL", "test": "cryo-EM"}, "[3]": {"target": "T1, VP3 (WT, co-expressed with VP6);VP6 (WT)", "test": "EMSA"}, "[4]": {"target": "the molecule itself", "test": "SEC + AUC"}, "[5]": {"target": "the molecule itself", "test": "cryo-EM structure"}}}
{"molecule": "recombinant untagged VP6 of bluetongue virus, wild type (natural protein)", "values": [{"measurement": "stoichiometry N", "setting": "[1]", "result": 5}]}
{"molecule": "UUUUUUUUUUUUUUUUUUUUUUUUUUUUUUUUUUUUUUUU (ssRNA)", "note": "[40 nt poly-U ssRNA]", "values": [{"measurement": "binding result", "setting": "[2]", "result": "binds"}]}
{"molecule": "GUUAAAAAAUCGCAUA (ssRNA)", "note": "[Cy5-labeled 16 nt ssRNA]", "values": [{"measurement": "apparent K (half saturation)", "setting": "[3]", "result": 192, "unit": "nM"}]}
{"molecule": "B1", "values": [{"measurement": "stoichiometry N", "setting": "[4]", "result": "~4"}, {"measurement": "stoichiometry N", "setting": "[5]", "result": 4}]}
